Assay results: patent publication US11098109B2, “Single-chain variable fragment anti-CD133 antibodies and uses thereof” (REGENTS OF THE UNIVERSITY OF MINNESOTA, priority 2010, dated 2021)
Entries after “also recorded” stand apart in the source; their conditions may differ.

T1: CD133 (Homo sapiens, UniProt O43490)
T1 construct: endogenous in cells
T1 sequence (O43490 20-865): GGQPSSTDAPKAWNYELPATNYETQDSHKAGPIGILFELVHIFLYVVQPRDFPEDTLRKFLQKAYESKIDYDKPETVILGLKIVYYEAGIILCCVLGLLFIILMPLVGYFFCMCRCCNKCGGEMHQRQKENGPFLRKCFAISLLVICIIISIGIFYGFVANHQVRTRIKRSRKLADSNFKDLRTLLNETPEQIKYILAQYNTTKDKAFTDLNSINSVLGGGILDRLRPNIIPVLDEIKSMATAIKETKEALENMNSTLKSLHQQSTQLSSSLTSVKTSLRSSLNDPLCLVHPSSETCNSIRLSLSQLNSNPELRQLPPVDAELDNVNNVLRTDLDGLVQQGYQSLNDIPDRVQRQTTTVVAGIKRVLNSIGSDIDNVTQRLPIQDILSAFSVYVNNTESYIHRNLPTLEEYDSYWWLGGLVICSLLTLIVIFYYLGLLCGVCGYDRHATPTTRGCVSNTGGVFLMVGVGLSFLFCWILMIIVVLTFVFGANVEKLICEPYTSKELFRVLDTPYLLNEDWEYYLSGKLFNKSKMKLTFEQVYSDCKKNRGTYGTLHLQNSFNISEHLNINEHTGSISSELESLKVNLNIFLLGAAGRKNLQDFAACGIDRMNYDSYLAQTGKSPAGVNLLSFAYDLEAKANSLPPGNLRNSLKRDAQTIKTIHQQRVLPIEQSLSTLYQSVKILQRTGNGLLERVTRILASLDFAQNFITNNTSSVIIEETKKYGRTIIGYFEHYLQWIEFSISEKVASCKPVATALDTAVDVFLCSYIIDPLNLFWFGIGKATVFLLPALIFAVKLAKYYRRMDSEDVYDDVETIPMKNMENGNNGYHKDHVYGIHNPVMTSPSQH


How the values were obtained:
CD133^+ Caco-2 cells = assay: Immunofluorescence of fixed Caco-2 cells with hybridoma supernatants; type: binding, human; conditions: hybridoma supernatant
Procedure: FIG. 2: Analysis of the newly generated CD133 hybridoma. Supematants of hybridoma clones were tested as a primary antibody in western blot (A) and Immunofluorescence (B) assays. Pre-immunized serum (-ve) or post immune anti sera (a.s.) served as controls. For western blot, Caco-2 lysates normalized for protein concentration were loaded onto a SDS-PAGE gel, resolved, blotted onto a nitrocellulose membrane and cut into strips. Each strip was probed with supernatant from the identified hybridoma. Membrane in Lane 1 was probed with a commercially available antibody (ab 19898, Abcam) and served as an additional positive control. For immunofluorescence, Caco-2 cells were fixed and immunostained with the hybridoma supernatants. A commercially available antibody (293C3, Militenyi) was used as additional positive control. Scale bars in the panel represent 200 micrometers. Supernatant of Hybridoma Clone 7 was used in the immunohistochemical analysis of primary glioblastoma and kidney tissue (C).
Caco-2 cells were plated in 16-well chamber slides. After four days of growth, the cells were fixed with 4% paraformaldehyde, washed in DPBS and then incubated in 200 mM glycine for 10 minutes. The cells were then blocked with a solution of 0.5% BSA and 0.2% gelatin in PBS for 10 minutes. […] The cells were further washed with PBS and then visualized under a fluorescence microscope. […]

CD133 [1] = molecular target: T1, CD133; assay: Tunicamycin glycosylation inhibition, Western blot of Caco-2 lysates; type: binding; conditions: Caco-2 cells treated with tunicamycin
Procedure: FIG. 3: Specificity of antibody produced by Hybridoma Clone 7. (A) Flow cytometry. Cells were incubated with primary antibody from either Hybridoma Clone 7 or 293C3 (Militenyi), followed by incubation with a labeled secondary antibody, and then analyzed by flow cytometry. Antibody from the newly developed anti-CD133 Hybridoma Clone 7 (open black histogram) stains very specifically the CD133-overexpressing cells, Caco-2 (iii), GBM6 (iv) and U87 cells transfected with CD133 (ii) but not CD133 negative U87 cells (i). Immunostaining using the monoclonal antibody produced by Hybridoma Clone 7 is compared to clone 293C3 (open grey histogram). Isotype control is represented by solid grey histogram. (B) Tunicamycin mediated glycosylation inhibition. Caco-2 cells were treated with increasing doses of tunicamycin (2.5, 5, 10, 20 μg/ml) for 3 days. DMSO treated cells or untreated cells served as controls. Cells were lysed and then analyzed by Western blotting using the monoclonal antibody produced by Hybridoma Clone 7 or GAPDH antibodies.
Caco-2 cells were seeded in 6-well plates and treated with 2.5 μg/ml-20 μg/ml tunicarmycin or vehicle (medium containing 0.1% DMSO) for three days. […] The lysates were centrifuged to remove cell debris and then analyzed by western blotting using either Hybridoma Clone 7 or anti-GAPDH (Sigma-Aldrich Corp., St. Louis, Mo.) as primary antibodies.

CD133 [2] = molecular target: T1, CD133; assay: Flow cytometry of FITC-labeled CD133scFv on CD133-transfected HEK293-TLR2 cells; type: binding; conditions: CD133-transfected vs control HEK293-TLR2 cells; listed as CD133scFv
Procedure: FIG. 4: CD133scFV recognizes the CD133 marker. The CD133scFv was labeled with FITC. An oligonucleotide was prepared from the known GenBank sequence of CD133 and then transfected into HEK293-TLR2 cells using a polyethylenimine (PEI)-DNA complex. The cells were incubated with anti-CD133scFv-FITC complex, washed, and then analyzed by flow cytometry. Data are represented in standard histogram format whereby % positive cells are plotted against fluorescence intensity. […] Controls include transfected cells reacted with empty vector, transfected cells reacted with an isotype control, or untransfected cells that are not reacted with CD133-FITC.
Ult-Luc or CMV-CD133 pDNA constructs were transfected into HEK293-TLR2 cells using JetPEI transfection reagent according to the manufacturer's instructions (Polyplus Transfection). Briefly, 7.5×10^5 cells/well were seeded in a 6-well plate. Twelve hours later, 2.5 μg of each pDNA were diluted in 5 μl 5% dextrose and mixed with 0.35 μL JetPEI also in 5 μl 5% dextrose. Following incubation for 15 minutes, the transfection mix was added to the cells. […]
CD133scFv was labeled with FITC at a FITC:scFv ratio of 24:1 (Invitrogen, Carlsbad, Calif.) and dialyzed to remove any free unbound FITC. […] Data are represented in standard histogram format whereby % positive cells are plotted against fluorescence intensity. […]

Molecule	immunofluorescence staining of the Caco-2 cell membrane (CD133^+ Caco-2 cells)	epitope recognized (glycosylated or not) (CD133 [1])	reaction of FITC-labeled scFv with cells (CD133 [2])
Hybridoma Clone 7: monoclonal antibody produced by Hybridoma Clone 7 that specifically binds to human CD133 (antibody, V domains shown) VL: DIVLSQSPAIMSASPGEKVTISCSASSSVSYMYWYQQKPGSSPKPWIYRTSNLASGVPARFSGSGSGTSYSLTISSMEAEDAATYYCQQYHSYPPTFGAGTKLELK VH: LEVKLVESGPELKKPGETVKISCKASGYTFTDYSMHWVNQAPGKGLKWMGWINTETGEPSYADDFKGRFAFSLETSASTAYLQINNLKNEDTATYFCATDYGDYFDYWGQGTTLTVSS	robustly stained	specifically binds to an non-glycosylated epitope	
No. 11 scFv: soluble scFv of the Hybridoma Clone 7 antibody expressed in E. coli Top10F', SEQ ID NO:58; also used FITC-labeled (protein, optionally FITC-labeled; scFv polypeptide) scFv: MDIVLSQSPAIMSASPGEKVTISCSASSSVSYMYWYQQKPGSSPKPWIYRTSNLASGVPARFSGSGSGTSYSLTISSMEAEDAATYYCQQYHSYPPTFGAGTKLELKSSGGGGSGGGGGGSSRSSLEVKLVESGPELKKPGETVKISCKASGYTFTDYSMHWVNQAPGKGLKWMGWINTETGEPSYADDFKGRFAFSLETSASTAYLQINNLKNEDTATYFCATDYGDYFDYWGQGTTLTVSS			Only the CD133-transfected cells reacted; also recorded: Only the CD133 transfected cells reacted
